From patent US11499162B2, “Plants having increased tolerance to herbicides” (BASF SE, priority 2016, dated 2022) come the findings set out here.

The chains are these.
B1: D250S: mutated TriA variant of SEQ ID NO: 2 (protein)
chain: MQTLSIQHGTLVTMDQYRRVLGDSWVHVQDGRIVALGVHAESVPPPADRVIDARGKVVLPGFINAHTHVNQILLRGGPSHGRQLYDWLFNVLYPGQKAMRPEDVAVAVRLYCAEAVRSGITTINDNADSAIYPGNIEAAMAVYGEVGVRVVYARMFFDRMDGRIQGYVDALKARSPQVELCSIMEETAVAKDRITALSDQYHGTAGGRISVWPAPAITPAVTVEGMRWAQAFARDRAVMWTLHMAESDHSERLHWMSPAEYMECYGLLDERLQVAHCVYFDRKDVRLLHRHNVKVASQVVSNAYLGSGVAPVPEMVERGMAVGIGTDDGNCNDSVNMIGDMKFMAHIHRAVHRDADVLTPEKILEMATIDGARSLGMDHEIGSIETGKRADLILLDLRHPQTTPHHHLAATIVFQAYGNEVDTVLIDGNVVMENRRLSFLPPERELAFLEEAQSRATAILQRANMVANPAWRSL
modifications: Pseudomonas
B2: N70TQ71V: mutated TriA variant of SEQ ID NO: 2 (protein)
chain: B1 chain with N70T, Q71V, S250D
modifications: Pseudomonas
B3: Q71NL92AY93LQ96TD128G: mutated TriA variant of SEQ ID NO: 2 (protein)
chain: B1 chain with Q71N, L92A, Y93L, Q96T, D128G, S250D
modifications: Pseudomonas
B4: L92AY93LD250S: mutated TriA variant of SEQ ID NO: 2 (protein)
chain: B1 chain with L92A, Y93L
modifications: Pseudomonas
B5: Y85LL88AF89AL92AY93VQ96TD128G: mutated TriA variant of SEQ ID NO: 2 (protein)
chain: B1 chain with Y85L, L88A, F89A, L92A, Y93V, Q96T, D128G, S250D
modifications: Pseudomonas
B6: D328G: mutated TriA variant of SEQ ID NO: 2 (protein)
chain: B1 chain with S250D, D328G
modifications: Pseudomonas
B7: L92AY93LM155TF157L: mutated TriA variant of SEQ ID NO: 2 (protein)
chain: B1 chain with L92A, Y93L, M155T, F157L, S250D
modifications: Pseudomonas
B8: F89LL92AY93L: mutated TriA variant of SEQ ID NO: 2 (protein)
chain: B1 chain with F89L, L92A, Y93L, S250D
modifications: Pseudomonas
B9: Y85LL88AL92AY93LQ96TD128G: mutated TriA variant of SEQ ID NO: 2 (protein)
chain: B1 chain with Y85L, L88A, L92A, Y93L, Q96T, D128G, S250D
modifications: Pseudomonas
B10: Y85LL88AL92AY93L: mutated TriA variant of SEQ ID NO: 2 (protein)
chain: B1 chain with Y85L, L88A, L92A, Y93L, S250D
modifications: Pseudomonas
B11: N70VQ71T: mutated TriA variant of SEQ ID NO: 2 (protein)
chain: B1 chain with N70V, Q71T, S250D
modifications: Pseudomonas
B12: L92AY93V: mutated TriA variant of SEQ ID NO: 2 (protein)
chain: B1 chain with L92A, Y93V, S250D
modifications: Pseudomonas
B13: L88AL92AY93V: mutated TriA variant of SEQ ID NO: 2 (protein)
chain: B1 chain with L88A, L92A, Y93V, S250D
modifications: Pseudomonas
B14: Y85LL88AL92AY93V: mutated TriA variant of SEQ ID NO: 2 (protein)
chain: B1 chain with Y85L, L88A, L92A, Y93V, S250D
modifications: Pseudomonas
B15: Y85LL88AF89AL92AY93LQ96TD128G: mutated TriA variant of SEQ ID NO: 2 (protein)
chain: B1 chain with Y85L, L88A, F89A, L92A, Y93L, Q96T, D128G, S250D
modifications: Pseudomonas
B16: D328A: mutated TriA variant of SEQ ID NO: 2 (protein)
chain: B1 chain with S250D, D328A
modifications: Pseudomonas
B17: Y85LL92AY93V: mutated TriA variant of SEQ ID NO: 2 (protein)
chain: B1 chain with Y85L, L92A, Y93V, S250D
modifications: Pseudomonas
B18: Y85LL92AY93LD250S: mutated TriA variant of SEQ ID NO: 2 (protein)
chain: B1 chain with Y85L, L92A, Y93L
modifications: Pseudomonas
B19: Y85LF89AL92AY93L: mutated TriA variant of SEQ ID NO: 2 (protein)
chain: B1 chain with Y85L, F89A, L92A, Y93L, S250D
modifications: Pseudomonas
B20: L92AY93VM155TF157L: mutated TriA variant of SEQ ID NO: 2 (protein)
chain: B1 chain with L92A, Y93V, M155T, F157L, S250D
modifications: Pseudomonas
B21: L88AL92AY93L: mutated TriA variant of SEQ ID NO: 2 (protein)
chain: B1 chain with L88A, L92A, Y93L, S250D
modifications: Pseudomonas
B22: F89AL92AY93L: mutated TriA variant of SEQ ID NO: 2 (protein)
chain: B1 chain with F89A, L92A, Y93L, S250D
modifications: Pseudomonas
B23: L92AY93I: mutated TriA variant of SEQ ID NO: 2 (protein)
chain: B1 chain with L92A, Y93I, S250D
modifications: Pseudomonas
B24: Y85LL92AY93LD128AD250S: mutated TriA variant of SEQ ID NO: 2 (protein)
chain: B1 chain with Y85L, L92A, Y93L, D128A
modifications: Pseudomonas
B25: Y85LL88AL92AY93VQ96TD128G: mutated TriA variant of SEQ ID NO: 2 (protein)
chain: B1 chain with Y85L, L88A, L92A, Y93V, Q96T, D128G, S250D
modifications: Pseudomonas
B26: L92AY93LQ96TD128G: mutated TriA variant of SEQ ID NO: 2 (protein)
chain: B1 chain with L92A, Y93L, Q96T, D128G, S250D
modifications: Pseudomonas

Residue numbers refer to the chain shown, from its start. In names and notes the source's numbering stands.

The data set is classed as biochemical. The following applies: pH 7.2. The essentials: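 Expression: BL21(DE3) Gold, pET24d N-His, pGro7, 0.1 mM IPTG, 25° C, 20 h. Reaction: 25 mM Na phosphate pH 7.2, substrate 1 nM to 10 nM, 30° C. Analysis: UPLC-HR-MS; % degradation vs empty vector.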
For B1, the “Degradation in % of 6-cyclopentyl-N4-(2,3,4,5,6-pentafluorophenyl)-1,3,5-triazine-2,4-diamine” value worked out at 16% and the “Degradation in % of Melamine” value is 0%.
For the molecule B2, the “Degradation in % of 6-cyclopentyl-N4-(2,3,4,5,6-pentafluorophenyl)-1,3,5-triazine-2,4-diamine” value is on record as 3% and the “Degradation in % of Melamine” value is 0%.
The matching figures for B3: 85% and 0%.
In the case of B4, the “Degradation in % of 6-cyclopentyl-N4-(2,3,4,5,6-pentafluorophenyl)-1,3,5-triazine-2,4-diamine” value was 99% and the “Degradation in % of Melamine” value was 0%.
As to B5, the “Degradation in % of 6-cyclopentyl-N4-(2,3,4,5,6-pentafluorophenyl)-1,3,5-triazine-2,4-diamine” value worked out at 13% and the “Degradation in % of Melamine” value is on record as 0%.
For B6 the same measures were 19% and 0%.
B7: the “Degradation in % of 6-cyclopentyl-N4-(2,3,4,5,6-pentafluorophenyl)-1,3,5-triazine-2,4-diamine” value is given as 99% and the “Degradation in % of Melamine” value is given as 41%.
With B8, the “Degradation in % of 6-cyclopentyl-N4-(2,3,4,5,6-pentafluorophenyl)-1,3,5-triazine-2,4-diamine” value is reported as 35% and the “Degradation in % of Melamine” value amounted to 0%.
B9: the “Degradation in % of 6-cyclopentyl-N4-(2,3,4,5,6-pentafluorophenyl)-1,3,5-triazine-2,4-diamine” value stood at 12% and the “Degradation in % of Melamine” value is recorded as 0%.
Consider B10, for which the “Degradation in % of 6-cyclopentyl-N4-(2,3,4,5,6-pentafluorophenyl)-1,3,5-triazine-2,4-diamine” value came out at 13% and the “Degradation in % of Melamine” value came out at 0%.
The matching figures for B11: 0% and 0%.
On to B12, for which the “Degradation in % of 6-cyclopentyl-N4-(2,3,4,5,6-pentafluorophenyl)-1,3,5-triazine-2,4-diamine” value was 58% and the “Degradation in % of Melamine” value amounted to 0%.
For the molecule B13, the “Degradation in % of 6-cyclopentyl-N4-(2,3,4,5,6-pentafluorophenyl)-1,3,5-triazine-2,4-diamine” value amounted to 25% and the “Degradation in % of Melamine” value was 0%.
Regarding B14, the “Degradation in % of 6-cyclopentyl-N4-(2,3,4,5,6-pentafluorophenyl)-1,3,5-triazine-2,4-diamine” value came to 13% and the “Degradation in % of Melamine” value is 0%.
B15: the “Degradation in % of 6-cyclopentyl-N4-(2,3,4,5,6-pentafluorophenyl)-1,3,5-triazine-2,4-diamine” value was 9% and the “Degradation in % of Melamine” value amounted to 0%.
For B16, the “Degradation in % of 6-cyclopentyl-N4-(2,3,4,5,6-pentafluorophenyl)-1,3,5-triazine-2,4-diamine” value stood at 95% and the “Degradation in % of Melamine” value is 5%.
For B17, the “Degradation in % of 6-cyclopentyl-N4-(2,3,4,5,6-pentafluorophenyl)-1,3,5-triazine-2,4-diamine” value was determined as 24% and the “Degradation in % of Melamine” value was 0%.
The matching figures for B18: 36% and 0%.
With B19, the “Degradation in % of 6-cyclopentyl-N4-(2,3,4,5,6-pentafluorophenyl)-1,3,5-triazine-2,4-diamine” value was found to be 15% and the “Degradation in % of Melamine” value came to 0%.
As to B20, the “Degradation in % of 6-cyclopentyl-N4-(2,3,4,5,6-pentafluorophenyl)-1,3,5-triazine-2,4-diamine” value stood at 99% and the “Degradation in % of Melamine” value turned out to be 0%.
B21: the “Degradation in % of 6-cyclopentyl-N4-(2,3,4,5,6-pentafluorophenyl)-1,3,5-triazine-2,4-diamine” value amounted to 35% and the “Degradation in % of Melamine” value was 0%.
For B22 the same measures were 99% and 7%.
Turning to B23, the “Degradation in % of 6-cyclopentyl-N4-(2,3,4,5,6-pentafluorophenyl)-1,3,5-triazine-2,4-diamine” value is reported as 75% and the “Degradation in % of Melamine” value is reported as 0%.
On to B24, for which the “Degradation in % of 6-cyclopentyl-N4-(2,3,4,5,6-pentafluorophenyl)-1,3,5-triazine-2,4-diamine” value is on record as 9% and the “Degradation in % of Melamine” value was found to be 0%.
Consider B25, for which the “Degradation in % of 6-cyclopentyl-N4-(2,3,4,5,6-pentafluorophenyl)-1,3,5-triazine-2,4-diamine” value turned out to be 14% and the “Degradation in % of Melamine” value came to 0%.
B26: the “Degradation in % of 6-cyclopentyl-N4-(2,3,4,5,6-pentafluorophenyl)-1,3,5-triazine-2,4-diamine” value amounted to 94% and the “Degradation in % of Melamine” value was 0%.
